Data as given in the MegaScale stability set (Tsuboyama et al. 2023).

B1: HEEH_KT_rd6_3632 (parent)
chain: DAEELIELVERALKEGREIILLGVRITSEEAGKWFIEWIRRFL

Variants of: B1
Assay: folding stability dG (cDNA display proteolysis); higher = more stable
Conditions: PBS, room temperature

Point of comparison: DAEELIELVERAQKEGREIILLGVRITSEEAGKWFIEWIRRFL, “folding stability dG” value 2.95 kcal/mol. Against it:
- DAEELIELVELALKEGREIILLGVRITSEEAGKWFIEWIRRFL — higher, 3.47 kcal/mol
- DAEELIELVEQALKEGREIILLGVRITSEEAGKWFIEWIRRFL — higher, 3.54 kcal/mol
- DAEELIELVEFALKEGREIILLGVRITSEEAGKWFIEWIRRFL — higher, 3.16 kcal/mol
- DAEELIELVEKALKEGREIILLGVRITSEEAGKWFIEWIRRFL — higher, 3.65 kcal/mol
- DAEELIELVEGALKEGREIILLGVRITSEEAGKWFIEWIRRFL — higher, 3.19 kcal/mol
- DAEELIELVEAALKEGREIILLGVRITSEEAGKWFIEWIRRFL — higher, 3.52 kcal/mol
- DAEELIELVEVALKEGREIILLGVRITSEEAGKWFIEWIRRFL — higher, 3.37 kcal/mol
- DAEELIELVEPALKEGREIILLGVRITSEEAGKWFIEWIRRFL — higher, 3.08 kcal/mol
- DAEELIELVEHALKEGREIILLGVRITSEEAGKWFIEWIRRFL — higher, 3.45 kcal/mol
- DAEELIELVEMALKEGREIILLGVRITSEEAGKWFIEWIRRFL — higher, 3.41 kcal/mol
- DAEELIELVEDALKEGREIILLGVRITSEEAGKWFIEWIRRFL — higher, 3.28 kcal/mol
- DAEELIELVENALKEGREIILLGVRITSEEAGKWFIEWIRRFL — higher, 3.51 kcal/mol
- DAEELIELVETALKEGREIILLGVRITSEEAGKWFIEWIRRFL — higher, 3.62 kcal/mol
- DAEELIELVEEALKEGREIILLGVRITSEEAGKWFIEWIRRFL — higher, 3.38 kcal/mol
- DAEELIELVEIALKEGREIILLGVRITSEEAGKWFIEWIRRFL — higher, 3.62 kcal/mol
- DAEELIELVEWALKEGREIILLGVRITSEEAGKWFIEWIRRFL — higher, 3.66 kcal/mol
- DAEELIELVEYALKEGREIILLGVRITSEEAGKWFIEWIRRFL — higher, 3.15 kcal/mol
- DAEELIELVESALKEGREIILLGVRITSEEAGKWFIEWIRRFL — higher, 3.32 kcal/mol
- DAEELIELVERALKLGREIILLGVRITSEEAGKWFIEWIRRFL — higher, 3.58 kcal/mol
- DAEELIELVERALKHGREIILLGVRITSEEAGKWFIEWIRRFL — higher, 3.54 kcal/mol
- DAEELIELVERALKAGREIILLGVRITSEEAGKWFIEWIRRFL — higher, 3.7 kcal/mol
- DAEELIELVERALKFGREIILLGVRITSEEAGKWFIEWIRRFL — higher, 3.64 kcal/mol
- DAEELIELVERALKIGREIILLGVRITSEEAGKWFIEWIRRFL — higher, 3.62 kcal/mol
- DAEELIELVERALKKGREIILLGVRITSEEAGKWFIEWIRRFL — higher, 3.45 kcal/mol
- DAEELIELVERALKMGREIILLGVRITSEEAGKWFIEWIRRFL — higher, 3.68 kcal/mol
- DAEELIELVERALKGGREIILLGVRITSEEAGKWFIEWIRRFL — higher, 3.31 kcal/mol
- DAEELIELVERALKDGREIILLGVRITSEEAGKWFIEWIRRFL — higher, 3.7 kcal/mol
- DAEELIELRERALKEGREIILLGVRITSEEAGKWFIEWIRRFL — lower, 2.87 kcal/mol
- DAEELIELGERALKEGREIILLGVRITSEEAGKWFIEWIRRFL — lower, 2.81 kcal/mol
- DAEELIELSERALKEGREIILLGVRITSEEAGKWFIEWIRRFL — lower, 2.75 kcal/mol
- DAEELIELQERALKEGREIILLGVRITSEEAGKWFIEWIRRFL — lower, 2.7 kcal/mol
- DAEELIELDERALKEGREIILLGVRITSEEAGKWFIEWIRRFL — lower, 2.93 kcal/mol
- DAEELIELHERALKEGREIILLGVRITSEEAGKWFIEWIRRFL — lower, 2.85 kcal/mol
- DAEELIELLERALKEGREIILLGVRITSEEAGKWFIEWIRRFL — higher, 3.59 kcal/mol
- DAEELIELNERALKEGREIILLGVRITSEEAGKWFIEWIRRFL — lower, 2.91 kcal/mol
- DAEELIELFERALKEGREIILLGVRITSEEAGKWFIEWIRRFL — higher, 3.37 kcal/mol
- DAEELIELWERALKEGREIILLGVRITSEEAGKWFIEWIRRFL — higher, 3.15 kcal/mol
- DAEELIELYERALKEGREIILLGVRITSEEAGKWFIEWIRRFL — lower, 2.87 kcal/mol
- DAEELIELMERALKEGREIILLGVRITSEEAGKWFIEWIRRFL — higher, 3.45 kcal/mol
- DAEELIELPERALKEGREIILLGVRITSEEAGKWFIEWIRRFL — lower, 2.93 kcal/mol
- DAEELIELKERALKEGREIILLGVRITSEEAGKWFIEWIRRFL — lower, 2.75 kcal/mol
- DAEELIELTERALKEGREIILLGVRITSEEAGKWFIEWIRRFL — higher, 3.09 kcal/mol
- DAEELIELEERALKEGREIILLGVRITSEEAGKWFIEWIRRFL — lower, 2.87 kcal/mol
- DAEELIELIERALKEGREIILLGVRITSEEAGKWFIEWIRRFL — higher, 3.79 kcal/mol
- DAEELIELVERAKKEGREIILLGVRITSEEAGKWFIEWIRRFL — higher, 3.07 kcal/mol
- DAEELIELVERAYKEGREIILLGVRITSEEAGKWFIEWIRRFL — higher, 3.28 kcal/mol
- DAEELIELVERAAKEGREIILLGVRITSEEAGKWFIEWIRRFL — higher, 3.14 kcal/mol
- DAEELIELVERAVKEGREIILLGVRITSEEAGKWFIEWIRRFL — higher, 3.54 kcal/mol
- DAEELIELVERAHKEGREIILLGVRITSEEAGKWFIEWIRRFL — higher, 2.99 kcal/mol
- DAEELIELVERANKEGREIILLGVRITSEEAGKWFIEWIRRFL — lower, 2.88 kcal/mol
- DAEELIELVERAIKEGREIILLGVRITSEEAGKWFIEWIRRFL — higher, 3.87 kcal/mol
- DAEELIELVERASKEGREIILLGVRITSEEAGKWFIEWIRRFL — higher, 3.08 kcal/mol
- DAEELIELVERACKEGREIILLGVRITSEEAGKWFIEWIRRFL — higher, 4.96 kcal/mol
- DAEELIELVERAEKEGREIILLGVRITSEEAGKWFIEWIRRFL — higher, 2.96 kcal/mol
- DAEELIELVERADKEGREIILLGVRITSEEAGKWFIEWIRRFL — higher, 2.97 kcal/mol
- DAEELIELVERAWKEGREIILLGVRITSEEAGKWFIEWIRRFL — higher, 3.43 kcal/mol
- DAEELIELVERAGKEGREIILLGVRITSEEAGKWFIEWIRRFL — higher, 2.96 kcal/mol
- DAEELIELVERARKEGREIILLGVRITSEEAGKWFIEWIRRFL — higher, 3.1 kcal/mol
- DAEELIELVERAMKEGREIILLGVRITSEEAGKWFIEWIRRFL — higher, 3.67 kcal/mol
- DAEELIELVERAPKEGREIILLGVRITSEEAGKWFIEWIRRFL — lower, 2.88 kcal/mol
- DAEELIELVERATKEGREIILLGVRITSEEAGKWFIEWIRRFL — higher, 3.25 kcal/mol
- DAEELIELVERAFKEGREIILLGVRITSEEAGKWFIEWIRRFL — higher, 3.42 kcal/mol
- DAEELIELVERYLKEGREIILLGVRITSEEAGKWFIEWIRRFL — higher, 3.33 kcal/mol
- DAEELIELVERSLKEGREIILLGVRITSEEAGKWFIEWIRRFL — higher, 3.31 kcal/mol
- DAEELIELVERFLKEGREIILLGVRITSEEAGKWFIEWIRRFL — higher, 3.42 kcal/mol
- DAEELIELVERHLKEGREIILLGVRITSEEAGKWFIEWIRRFL — higher, 3.35 kcal/mol
- DAEELIELVERVLKEGREIILLGVRITSEEAGKWFIEWIRRFL — higher, 3.55 kcal/mol
- DAEELIELVERNLKEGREIILLGVRITSEEAGKWFIEWIRRFL — higher, 3.13 kcal/mol
- DAEELIELVERMLKEGREIILLGVRITSEEAGKWFIEWIRRFL — higher, 3.56 kcal/mol
- DAEELIELVERDLKEGREIILLGVRITSEEAGKWFIEWIRRFL — lower, 2.84 kcal/mol
- DAEELIELVERKLKEGREIILLGVRITSEEAGKWFIEWIRRFL — higher, 3.08 kcal/mol
- DAEELIELVERGLKEGREIILLGVRITSEEAGKWFIEWIRRFL — higher, 3.21 kcal/mol
- DAEELIELVERQLKEGREIILLGVRITSEEAGKWFIEWIRRFL — higher, 3.17 kcal/mol
- DAEELIELVERRLKEGREIILLGVRITSEEAGKWFIEWIRRFL — higher, 3.17 kcal/mol
- DAEELIELVERPLKEGREIILLGVRITSEEAGKWFIEWIRRFL — lower, 2.88 kcal/mol
- DAEELIELVERTLKEGREIILLGVRITSEEAGKWFIEWIRRFL — higher, 3.3 kcal/mol
- DAEELIELVERELKEGREIILLGVRITSEEAGKWFIEWIRRFL — higher, 3.09 kcal/mol
- DAEELIELVERWLKEGREIILLGVRITSEEAGKWFIEWIRRFL — higher, 3.76 kcal/mol
- DAEELIELVERLLKEGREIILLGVRITSEEAGKWFIEWIRRFL — higher, 3.74 kcal/mol
- DAEELIELVERILKEGREIILLGVRITSEEAGKWFIEWIRRFL — higher, 3.73 kcal/mol
- DAEELIELVERALEEGREIILLGVRITSEEAGKWFIEWIRRFL — higher, 3.54 kcal/mol
- DAEELIELVERALSEGREIILLGVRITSEEAGKWFIEWIRRFL — higher, 3.62 kcal/mol
- DAEELIELVERALVEGREIILLGVRITSEEAGKWFIEWIRRFL — higher, 3.5 kcal/mol
- DAEELIELVERALAEGREIILLGVRITSEEAGKWFIEWIRRFL — higher, 3.73 kcal/mol
- DAEELIELVERALYEGREIILLGVRITSEEAGKWFIEWIRRFL — higher, 3.31 kcal/mol
- DAEELIELVERALLEGREIILLGVRITSEEAGKWFIEWIRRFL — higher, 3.79 kcal/mol
- DAEELIELVERALGEGREIILLGVRITSEEAGKWFIEWIRRFL — higher, 3.5 kcal/mol
- DAEELIELVERALPEGREIILLGVRITSEEAGKWFIEWIRRFL — higher, 3.27 kcal/mol
- DAEELIELVERALDEGREIILLGVRITSEEAGKWFIEWIRRFL — higher, 3.25 kcal/mol
- DAEELIELVERALQEGREIILLGVRITSEEAGKWFIEWIRRFL — higher, 3.56 kcal/mol
- DAEELIELVERALREGREIILLGVRITSEEAGKWFIEWIRRFL — higher, 3.86 kcal/mol
- DAEELIELVERALHEGREIILLGVRITSEEAGKWFIEWIRRFL — higher, 3.49 kcal/mol
- DAEELIELVERALNEGREIILLGVRITSEEAGKWFIEWIRRFL — higher, 3.52 kcal/mol
- DAEELIELVERALIEGREIILLGVRITSEEAGKWFIEWIRRFL — higher, 3.6 kcal/mol
- DAEELIELVERALTEGREIILLGVRITSEEAGKWFIEWIRRFL — higher, 3.42 kcal/mol
- DAEELIELVERALFEGREIILLGVRITSEEAGKWFIEWIRRFL — higher, 3.39 kcal/mol
- DAEELIELVERALMEGREIILLGVRITSEEAGKWFIEWIRRFL — higher, 3.48 kcal/mol
- DAEELIELVERALWEGREIILLGVRITSEEAGKWFIEWIRRFL — higher, 3.5 kcal/mol
- DAEELIELVSRALKEGREIILLGVRITSEEAGKWFIEWIRRFL — higher, 3.62 kcal/mol
- DAEELIELVGRALKEGREIILLGVRITSEEAGKWFIEWIRRFL — higher, 3.28 kcal/mol
- DAEELIELVARALKEGREIILLGVRITSEEAGKWFIEWIRRFL — higher, 3.63 kcal/mol
- DAEELIELVIRALKEGREIILLGVRITSEEAGKWFIEWIRRFL — higher, 4.3 kcal/mol
- DAEELIELVHRALKEGREIILLGVRITSEEAGKWFIEWIRRFL — higher, 3.78 kcal/mol
- DAEELIELVQRALKEGREIILLGVRITSEEAGKWFIEWIRRFL — higher, 3.83 kcal/mol
- DAEELIELVPRALKEGREIILLGVRITSEEAGKWFIEWIRRFL — lower, 2.64 kcal/mol
- DAEELIELVRRALKEGREIILLGVRITSEEAGKWFIEWIRRFL — higher, 4.03 kcal/mol
- DAEELIELVTRALKEGREIILLGVRITSEEAGKWFIEWIRRFL — higher, 3.92 kcal/mol
- DAEELIELVVRALKEGREIILLGVRITSEEAGKWFIEWIRRFL — higher, 3.99 kcal/mol
- DAEELIELVNRALKEGREIILLGVRITSEEAGKWFIEWIRRFL — higher, 3.82 kcal/mol
- DAEELIELVYRALKEGREIILLGVRITSEEAGKWFIEWIRRFL — higher, 3.81 kcal/mol
- DAEELIELVDRALKEGREIILLGVRITSEEAGKWFIEWIRRFL — higher, 3.41 kcal/mol
- DAEELIELVFRALKEGREIILLGVRITSEEAGKWFIEWIRRFL — higher, 3.69 kcal/mol
- DAEELIELVKRALKEGREIILLGVRITSEEAGKWFIEWIRRFL — higher, 3.93 kcal/mol
- DAEELIELVCRALKEGREIILLGVRITSEEAGKWFIEWIRRFL — higher, 4.65 kcal/mol
- DAEELIELVMRALKEGREIILLGVRITSEEAGKWFIEWIRRFL — higher, 3.84 kcal/mol
- DAEELIELVLRALKEGREIILLGVRITSEEAGKWFIEWIRRFL — higher, 4.16 kcal/mol
- DAEELIELVWRALKEGREIILLGVRITSEEAGKWFIEWIRRFL — higher, 4.21 kcal/mol
